Assay results: patent US20040053425A1

Target: human prostate-specific antigen (PSA) (human) (UniProt P07288)
Assay: cell-based or functional assay

Chain of UniProt P07288 (P07288 25-261 limits assumed): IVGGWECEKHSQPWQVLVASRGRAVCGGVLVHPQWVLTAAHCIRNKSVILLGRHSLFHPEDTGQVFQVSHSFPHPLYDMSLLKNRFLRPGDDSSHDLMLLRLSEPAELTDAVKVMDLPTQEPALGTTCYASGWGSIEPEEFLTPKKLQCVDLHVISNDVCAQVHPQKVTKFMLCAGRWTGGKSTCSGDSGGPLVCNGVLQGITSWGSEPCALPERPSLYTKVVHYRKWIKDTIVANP

Substance: anti-PSA monoclonal antibody clone ER-PR8
- decrease in PSA enzymatic activity: 46%
